Data: patent US20210238260

Legend:
[1] = biological target: Factor X (FX), P00742
[2] = biological target: Factor X, P00742
Sequence of Factor X, P00742 (P00742 whole entry, looked up): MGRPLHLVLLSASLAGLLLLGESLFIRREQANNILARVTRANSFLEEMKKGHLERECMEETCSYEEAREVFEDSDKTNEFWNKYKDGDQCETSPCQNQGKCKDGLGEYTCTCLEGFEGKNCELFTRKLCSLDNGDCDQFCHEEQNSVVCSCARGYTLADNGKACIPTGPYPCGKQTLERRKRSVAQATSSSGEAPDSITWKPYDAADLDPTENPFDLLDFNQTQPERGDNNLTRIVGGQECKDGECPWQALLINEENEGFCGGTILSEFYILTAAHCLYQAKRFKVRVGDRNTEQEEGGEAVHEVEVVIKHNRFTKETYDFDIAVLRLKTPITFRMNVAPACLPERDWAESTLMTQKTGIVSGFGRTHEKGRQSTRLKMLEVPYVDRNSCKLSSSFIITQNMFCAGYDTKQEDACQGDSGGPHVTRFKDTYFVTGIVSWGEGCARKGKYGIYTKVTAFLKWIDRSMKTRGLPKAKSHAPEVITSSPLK

Sequence of Factor X (FX), P00742 (P00742 whole entry, looked up): as above

| Protein | KM [1] [µM] | % of WT kcat/KM [2] [%] | kcat [2] [s⁻¹] | kcat/KM [2] [M⁻¹ s⁻¹] | % of WT kcat/KM [1] [%] | kcat/KM for FX activation (Xase: FVIIIa, PC/PS vesicles, Ca2+) [1] [M⁻¹ s⁻¹] |
| --- | --- | --- | --- | --- | --- | --- |
| FIXa-Y155F/N260S/R338E/T343R/R403E (protein) chain 1: YNSGKLEEFVQGNLERECMEEKCSFEEAREVFENTERTTEFWKQYVDGDQCESNPCLNGGSCKDDINSYECWCPFGFEGKNCELDVTCNIKNGRCEQFCKNSADNKVVCSCTEGYRLAENQKSCEPAVPFPCGRVSVSQTSKLTR chain 2: VVGGEDAKPGQFPWQVVLNGKVDAFCGGSIVNEKWIVTAAHCVETGVKITVVAGEHNIEETEHTEQKRNVIRIIPHHNYSAAINKYNHDIALLELDEPLVLNSYVTPICIADKEYTNIFLKFGSGYVSGWGRVFHKGRSALVLQYLRVPLVDRATCLESTKFRIYNNMFCAGFHEGGRDSCQGDSGGPHVTEVEGTSFLTGIISWGEECAMKGKYGIYTKVSEYVNWIKEKTKLT | 0.0692 | 203 | 6.4 | 9.4e+07 | – | – |
| FIXa-Y155F/I251S/R338E/T343R/R403E (protein) chain 1: YNSGKLEEFVQGNLERECMEEKCSFEEAREVFENTERTTEFWKQYVDGDQCESNPCLNGGSCKDDINSYECWCPFGFEGKNCELDVTCNIKNGRCEQFCKNSADNKVVCSCTEGYRLAENQKSCEPAVPFPCGRVSVSQTSKLTR chain 2: VVGGEDAKPGQFPWQVVLNGKVDAFCGGSIVNEKWIVTAAHCVETGVKITVVAGEHNIEETEHTEQKRNVSRIIPHHNYNAAINKYNHDIALLELDEPLVLNSYVTPICIADKEYTNIFLKFGSGYVSGWGRVFHKGRSALVLQYLRVPLVDRATCLESTKFRIYNNMFCAGFHEGGRDSCQGDSGGPHVTEVEGTSFLTGIISWGEECAMKGKYGIYTKVSEYVNWIKEKTKLT | 0.0196 | 651 | 5.9 | 3e+08 | – | – |
| FIXa-R318Y/R338E/T343R/R403E/E410S (protein) chain 1: YNSGKLEEFVQGNLERECMEEKCSFEEAREVFENTERTTEFWKQYVDGDQCESNPCLNGGSCKDDINSYECWCPFGFEGKNCELDVTCNIKNGRCEQFCKNSADNKVVCSCTEGYRLAENQKSCEPAVPFPCGRVSVSQTSKLTR chain 2: VVGGEDAKPGQFPWQVVLNGKVDAFCGGSIVNEKWIVTAAHCVETGVKITVVAGEHNIEETEHTEQKRNVIRIIPHHNYNAAINKYNHDIALLELDEPLVLNSYVTPICIADKEYTNIFLKFGSGYVSGWGRVFHKGYSALVLQYLRVPLVDRATCLESTKFRIYNNMFCAGFHEGGRDSCQGDSGGPHVTEVEGTSFLTGIISWGEECAMKGKYGIYTKVSEYVNWIKSKTKLT | 0.019 | 962 | 7.6 | 4.4e+08 | – | – |
| FIXa-Y155F/K247N/N249S/T343R/R403E (protein) chain 1: YNSGKLEEFVQGNLERECMEEKCSFEEAREVFENTERTTEFWKQYVDGDQCESNPCLNGGSCKDDINSYECWCPFGFEGKNCELDVTCNIKNGRCEQFCKNSADNKVVCSCTEGYRLAENQKSCEPAVPFPCGRVSVSQTSKLTR chain 2: VVGGEDAKPGQFPWQVVLNGKVDAFCGGSIVNEKWIVTAAHCVETGVKITVVAGEHNIEETEHTEQNRSVIRIIPHHNYNAAINKYNHDIALLELDEPLVLNSYVTPICIADKEYTNIFLKFGSGYVSGWGRVFHKGRSALVLQYLRVPLVDRATCLRSTKFRIYNNMFCAGFHEGGRDSCQGDSGGPHVTEVEGTSFLTGIISWGEECAMKGKYGIYTKVSEYVNWIKEKTKLT | 0.0596 | 184 | 4.7 | 8.5e+07 | – | – |
| FIXa-Y155F/K247N/N249S/R318Y/R338E/T343R/R403E (protein) chain 1: YNSGKLEEFVQGNLERECMEEKCSFEEAREVFENTERTTEFWKQYVDGDQCESNPCLNGGSCKDDINSYECWCPFGFEGKNCELDVTCNIKNGRCEQFCKNSADNKVVCSCTEGYRLAENQKSCEPAVPFPCGRVSVSQTSKLTR chain 2: VVGGEDAKPGQFPWQVVLNGKVDAFCGGSIVNEKWIVTAAHCVETGVKITVVAGEHNIEETEHTEQNRSVIRIIPHHNYNAAINKYNHDIALLELDEPLVLNSYVTPICIADKEYTNIFLKFGSGYVSGWGRVFHKGYSALVLQYLRVPLVDRATCLESTKFRIYNNMFCAGFHEGGRDSCQGDSGGPHVTEVEGTSFLTGIISWGEECAMKGKYGIYTKVSEYVNWIKEKTKLT | 0.0365 | 630 | 10.6 | 2.9e+08 | – | – |
| FIXa-K247N/N249S/R318Y/R338E/T343R/R403E (protein) chain 1: YNSGKLEEFVQGNLERECMEEKCSFEEAREVFENTERTTEFWKQYVDGDQCESNPCLNGGSCKDDINSYECWCPFGFEGKNCELDVTCNIKNGRCEQFCKNSADNKVVCSCTEGYRLAENQKSCEPAVPFPCGRVSVSQTSKLTR chain 2: VVGGEDAKPGQFPWQVVLNGKVDAFCGGSIVNEKWIVTAAHCVETGVKITVVAGEHNIEETEHTEQNRSVIRIIPHHNYNAAINKYNHDIALLELDEPLVLNSYVTPICIADKEYTNIFLKFGSGYVSGWGRVFHKGYSALVLQYLRVPLVDRATCLESTKFRIYNNMFCAGFHEGGRDSCQGDSGGPHVTEVEGTSFLTGIISWGEECAMKGKYGIYTKVSEYVNWIKEKTKLT | 0.0284 | 886 | 9.2 | 4.1e+08 | – | – |
| FIXa-Y155F/K247N/N249S/R338E/T343R/R403E/E410N (protein) chain 1: YNSGKLEEFVQGNLERECMEEKCSFEEAREVFENTERTTEFWKQYVDGDQCESNPCLNGGSCKDDINSYECWCPFGFEGKNCELDVTCNIKNGRCEQFCKNSADNKVVCSCTEGYRLAENQKSCEPAVPFPCGRVSVSQTSKLTR chain 2: VVGGEDAKPGQFPWQVVLNGKVDAFCGGSIVNEKWIVTAAHCVETGVKITVVAGEHNIEETEHTEQNRSVIRIIPHHNYNAAINKYNHDIALLELDEPLVLNSYVTPICIADKEYTNIFLKFGSGYVSGWGRVFHKGRSALVLQYLRVPLVDRATCLESTKFRIYNNMFCAGFHEGGRDSCQGDSGGPHVTEVEGTSFLTGIISWGEECAMKGKYGIYTKVSEYVNWIKNKTKLT | 0.0264 | 805 | 9.8 | 3.7e+08 | – | – |
| FIXa-K247N/N249S/R338E/T343R/R403E/E410N (protein) chain 1: YNSGKLEEFVQGNLERECMEEKCSFEEAREVFENTERTTEFWKQYVDGDQCESNPCLNGGSCKDDINSYECWCPFGFEGKNCELDVTCNIKNGRCEQFCKNSADNKVVCSCTEGYRLAENQKSCEPAVPFPCGRVSVSQTSKLTR chain 2: VVGGEDAKPGQFPWQVVLNGKVDAFCGGSIVNEKWIVTAAHCVETGVKITVVAGEHNIEETEHTEQNRSVIRIIPHHNYNAAINKYNHDIALLELDEPLVLNSYVTPICIADKEYTNIFLKFGSGYVSGWGRVFHKGRSALVLQYLRVPLVDRATCLESTKFRIYNNMFCAGFHEGGRDSCQGDSGGPHVTEVEGTSFLTGIISWGEECAMKGKYGIYTKVSEYVNWIKNKTKLT | 0.0251 | – | 10.8 | – | 930 | 4.3e+08 |
| FIXa-Y155F/K247N/N249S/R318Y/R338E (protein) chain 1: YNSGKLEEFVQGNLERECMEEKCSFEEAREVFENTERTTEFWKQYVDGDQCESNPCLNGGSCKDDINSYECWCPFGFEGKNCELDVTCNIKNGRCEQFCKNSADNKVVCSCTEGYRLAENQKSCEPAVPFPCGRVSVSQTSKLTR chain 2: VVGGEDAKPGQFPWQVVLNGKVDAFCGGSIVNEKWIVTAAHCVETGVKITVVAGEHNIEETEHTEQNRSVIRIIPHHNYNAAINKYNHDIALLELDEPLVLNSYVTPICIADKEYTNIFLKFGSGYVSGWGRVFHKGYSALVLQYLRVPLVDRATCLESTKFTIYNNMFCAGFHEGGRDSCQGDSGGPHVTEVEGTSFLTGIISWGEECAMKGKYGIYTKVSRYVNWIKEKTKLT | 0.0263 | – | 7.5 | – | 632 | 2.9e+08 |
| FIXa-Y155F/K247N/N249S/R318Y/T343R (protein) chain 1: YNSGKLEEFVQGNLERECMEEKCSFEEAREVFENTERTTEFWKQYVDGDQCESNPCLNGGSCKDDINSYECWCPFGFEGKNCELDVTCNIKNGRCEQFCKNSADNKVVCSCTEGYRLAENQKSCEPAVPFPCGRVSVSQTSKLTR chain 2: VVGGEDAKPGQFPWQVVLNGKVDAFCGGSIVNEKWIVTAAHCVETGVKITVVAGEHNIEETEHTEQNRSVIRIIPHHNYNAAINKYNHDIALLELDEPLVLNSYVTPICIADKEYTNIFLKFGSGYVSGWGRVFHKGYSALVLQYLRVPLVDRATCLRSTKFRIYNNMFCAGFHEGGRDSCQGDSGGPHVTEVEGTSFLTGIISWGEECAMKGKYGIYTKVSRYVNWIKEKTKLT | 0.0421 | – | 10.3 | – | 549 | 2.5e+08 |
| FIXa-Y155F/K247N/N249S/R318Y/R403E (protein) chain 1: YNSGKLEEFVQGNLERECMEEKCSFEEAREVFENTERTTEFWKQYVDGDQCESNPCLNGGSCKDDINSYECWCPFGFEGKNCELDVTCNIKNGRCEQFCKNSADNKVVCSCTEGYRLAENQKSCEPAVPFPCGRVSVSQTSKLTR chain 2: VVGGEDAKPGQFPWQVVLNGKVDAFCGGSIVNEKWIVTAAHCVETGVKITVVAGEHNIEETEHTEQNRSVIRIIPHHNYNAAINKYNHDIALLELDEPLVLNSYVTPICIADKEYTNIFLKFGSGYVSGWGRVFHKGYSALVLQYLRVPLVDRATCLRSTKFTIYNNMFCAGFHEGGRDSCQGDSGGPHVTEVEGTSFLTGIISWGEECAMKGKYGIYTKVSEYVNWIKEKTKLT | 0.109 | – | 1.7 | – | 34 | 1.6e+07 |
| FIXa-Y155F/K247N/N249S/R318Y/E410N (protein) chain 1: YNSGKLEEFVQGNLERECMEEKCSFEEAREVFENTERTTEFWKQYVDGDQCESNPCLNGGSCKDDINSYECWCPFGFEGKNCELDVTCNIKNGRCEQFCKNSADNKVVCSCTEGYRLAENQKSCEPAVPFPCGRVSVSQTSKLTR chain 2: VVGGEDAKPGQFPWQVVLNGKVDAFCGGSIVNEKWIVTAAHCVETGVKITVVAGEHNIEETEHTEQNRSVIRIIPHHNYNAAINKYNHDIALLELDEPLVLNSYVTPICIADKEYTNIFLKFGSGYVSGWGRVFHKGYSALVLQYLRVPLVDRATCLRSTKFTIYNNMFCAGFHEGGRDSCQGDSGGPHVTEVEGTSFLTGIISWGEECAMKGKYGIYTKVSRYVNWIKNKTKLT | 0.0488 | – | 3.4 | – | 155 | 7.2e+07 |
| FIXa-Y155F/K247N/N249S/R338E/R403E (protein) chain 1: YNSGKLEEFVQGNLERECMEEKCSFEEAREVFENTERTTEFWKQYVDGDQCESNPCLNGGSCKDDINSYECWCPFGFEGKNCELDVTCNIKNGRCEQFCKNSADNKVVCSCTEGYRLAENQKSCEPAVPFPCGRVSVSQTSKLTR chain 2: VVGGEDAKPGQFPWQVVLNGKVDAFCGGSIVNEKWIVTAAHCVETGVKITVVAGEHNIEETEHTEQNRSVIRIIPHHNYNAAINKYNHDIALLELDEPLVLNSYVTPICIADKEYTNIFLKFGSGYVSGWGRVFHKGRSALVLQYLRVPLVDRATCLESTKFTIYNNMFCAGFHEGGRDSCQGDSGGPHVTEVEGTSFLTGIISWGEECAMKGKYGIYTKVSEYVNWIKEKTKLT | 0.0409 | – | 5.3 | – | 299 | 1.4e+08 |
